Assay results: patent publication US20160017018A1 (GENERAL HOSPITAL, published 2016)

Molecular target: T1, human CD80 (human, UniProt P33681 35-288)
T1 construct: whole, on cells; also called human CD80-expressing acute myelogenous leukemia cell line (Cat#CRL-2740, ATCC)
T1 sequence (looked up): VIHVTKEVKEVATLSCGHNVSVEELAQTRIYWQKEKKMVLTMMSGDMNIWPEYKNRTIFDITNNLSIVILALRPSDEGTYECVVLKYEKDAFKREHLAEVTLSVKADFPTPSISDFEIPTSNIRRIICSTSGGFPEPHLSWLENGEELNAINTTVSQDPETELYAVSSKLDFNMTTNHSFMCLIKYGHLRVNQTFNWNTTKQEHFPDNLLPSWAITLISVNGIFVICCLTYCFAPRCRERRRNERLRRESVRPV
Assay: flow cytometry on human CD80-expressing AML cells; grade = binding percentage of the wild-type, ++++ (100%)
From the text: FIGS. 1A-C. […] PE-SA only; biotinylated protein control [porcine CD3εγ ectodomain single-chain fusion protein (pCD3εγ)] […] B) Bar graph presentation of the mean fluorescence intensity (MFI) from flow cytometry binding analysis data as described in A). Different concentrations of biotinylated pCD3εγ were used as non-specific fluorescence control. Error bars are included based on the calculated standard deviation. […] The concentration of the competitor is indicated. All figures of 1A-C are representatives of multiple individual experiments.

B1: Non-N-Glycosylated soluble human CTLA-4-6×His (receptor)
chain: KAMHVAQPAVVLASSRGIASFVCEYASPGKATEVRVTVLRQADSQVTEVCAATYMMGNELTFLDDSICTGTSSGNQVALTIQGLRAMDTGLYICKVELMYPPPYYLGIGAGTQIYVIDPEPCPDSDHHHHHH
modifications: biotinylated for the direct binding stain (sites not given); unlabeled in the blocking assay
notes: Expressed in Pichia pastoris; also called wild-type soluble human CTLA-4; human CTLA-4 wild-type
binding result: binds
